Results on 18 sequences are retold here after the DeepSol protein solubility set.

This data set can be described thus: soluble on expression in E. coli; label from the status in PepcDB or PDB records.
For “MGSDKIHHHHHHMYVLAIDQSTSGTKAIIFDEKGGIVHRVTVYHKQYYPKPGWVEHDPEEIFRNTLDACRKVIEESGIKPLEIEALAITNQRETTILWEKKSGKPVYNAVVWQCQRGASLCEEIKKRGLEGKIKEKTGLVVDPYFSASKIRWILDNVEGVKNKAKQGEIAFGTVDSWLIWKLTKGEVHATDFSNASRTLLLNIHELRWDEEVLEIFEIPPEILPELKSSDSVFGYTDLGFLPKKIPIVGVMGDSSAALFGQGGFYSGDIKVTYGTGSSTMLNIGEKPNVSDSPIVCSVGWVVKETSSYVLEGNIHSAGDTIVWLKEKLGIISDPSETEKIALSLENNGGVYLVPAFVGLGAPYWRSDVKAAILGLQRNHGKEHVVRAALESIAYQVRDIFEEMVRISSKEPTEVRADGGITRNRFLMQFQADILNIPVLVSNIEEVSARGVAFVALLHLGAFSDLEEIRQKITYREKYEPRMGDELREMYYEGWKTAIRKLLTE”, the “soluble on expression in E. coli” value is on record as “not soluble”.
“MCGRIAQKSAPEDYVEILWPNARLIFDDVAGPRYNIPPGTRPLTMHRLVDQAEALARLPWGYKPHGSSFFMINAKLETIERHGWPWKLMIGTGRILVPADGWYEWKALDSGPKPAKQPYYIHGDAPLLFAGLSAWRRGAELDEAHGFAIVTNDALGGMVDVHDRRPVALPPELAREWVDPATPVARAKEILRAGLPETAFSWYPVRQEVGSSKYQLPDAVDPLLEHHHHHH”: the “soluble on expression in E. coli” value was “soluble”.
On to “MHMSFDGMFTYGMTHELNEKIMGGRITKIHQPYKHDVIFHIRAKGKNQKLLLSAHPSYSRVHITAQAYENPSEPPMFCMLLRKHIEGGFIEKIEQAGLDRIMIFHIKSRNEIGDETVRKLYVEIMGRHSNIILTDAAENVIIDGLKHLSPSMNSYRTVLPGQDYKLPPAQDKISPLEASEDDILRHLSFQEGRLDKQIVDHFSGVSPLFAKEAVHRAGLANKVTLPKALLALFAEVKEHRFIPNITTVNGKEYFYLLELTHLKGEARRFDSLSELLDRFYFGKAERDRVKQQAQDLERFVVNERKKNANKIKKLEKTLEYSENAKEFQLYGELLTANLYMLKKGDKQAEVINYYDEESPTITIPLNPNKTPSENAQAYFTKYQKAKNSVAVVEEQIRLAQEEIEYFDQLIQQLSSASPRDISEIREELVEGKYLRPKQQKGQKKQKP”, for which the “soluble on expression in E. coli” value was “soluble”.
As for “MKCIAIDDEPLALKQLTDYISRVPFLSLVKSCQDAFEAMKVLADEEIDLIFVDINMPDLNGLDFIRSLISRPMVVFTTAYSEYAVDGFKLDAVDYLLKPFEFQDLLKAADKARKQYEYRMLEQQGELGNSSQIKGDSLFVKSDYKVVRIDVKNIRYIEGMSEYVRIFIEGEDKPVITLASLQKMEERLPTYFMRVHRSYIVNLRKITEVSRLRIIFDRNTYIPVGDNYKERFAEHISKLSFS”, the “soluble on expression in E. coli” value is “not soluble”.
With “MTATIQNEKVIVSISDKGAELQSVRLKEDNTEYLWQGDSTYWGRRAPILFPIVGRLVDNTYYVDGKPYSLTQHGFARDLTFFVKEQSETKITYIVTSNEETLKKYPYEFELLVSYELNGQSVHITYEVNNPTSKEMFFSIGAHPGFNFPLLDGESFTDYHLSFNGSERLETSVLEGPYLSNKKQLIAENTTELPLTYDLFKNDALIFEHMNTNEISIRSHKHNKFVKVEFDGFPFVGVWTPGDNAPFLCIEPWYGIADEVNPAKDFKNKKGIQSLQANETFTCRYSITIGLEHHHHHH” the entry was “soluble”; with “MPDSPVDVKTQSRLTPPTMPPPPTTQGAPRTSSFTPTTLTNGTSHSPTALNGAPSPPNGFSNGPSSSSSSSLANQQLPPACGARQLSKLKRFLTTLQQFGNDISPEIGERVRTLVLGLVNSTLTIEEFHSKLQEATNFPLRPFVIPFLKANLPLLQRELLHCARLAKQNPAQYLAQHEQLLLDASTTSPVDSSELLLDVNENGKRRTPDRTKENGFDREPLHSEHPSKRPCTISPGQRYSPNNGLSYQPNGLPHPTPPPPQHYRLDDMAIAHHYRDSYRHPSHRDLRDRNRPMGLHGTRQEEMIDHRLTDREWAEEWKHLDHLLNCIMDMVEKTRRSLTVLRRCQEADREELNYWIRRYSDAEDLKKGGGSSSSHSRQQSPVNPDPVALDAHREFLHRPASGYVPEEIWKKAEEAVNEVKRQAMTELQKAVSEAERKAHDMITTERAKMERTVAEAKRQAAEDALAVINQQEDSSESCWNCGRKASETCSGCNTARYCGSFCQHKDWEKHHHICGQTLQAQQQGDTPAVSSSVTPNSGAGSPMDTPPAATPRSTTPGTPSTIETTPR”, “soluble”; with “MSQFDLTPPSPAQRDALIAGLSDEEQRVLLHHGTEAPFCGVFLDNKLDGVYTCRLCGLPLFRSNAKFDSGTGWPSFFAPYDPAHVREIRDTSYGMVRTEIVCARCDSHLGHVFPDGPPPTGERHSLNSVSLAFTEDGQPLPNPLQRAGAETQPA”, “soluble”.
Regarding “MSLAKNIVFIGFMGSGKSTLARALAKDLDLVFLDSDFLIEQKFNQKVSEIFEQKRENFFREQEQKMADFFSSCEKACIATGGGFVNVSNLEKAGFCIYLKADFEYLKKRLDKDEISKRPLFYDEIKAKKLYNERLSKYEQKANFILNIENKNIDELLSEIKKVIKEGGSHHHHHH”, the “soluble on expression in E. coli” value was “soluble”.
“MKFSRPVLSVNHLILGKKCDVCRKKCSGDVLKANDKYFHINCFQCKKCGRNLGETGFYTTPENAYLCPDDFRAVSKEITVKTTTQQAHASSSSAATPKSPEKSNGTTDVSSSGAANATLQQISPLGSPTTCAACDQALHSGQVLLALGLSWHVYCFKCSECSAVLHGEYMSHHGKPLCLRDYNEKFGVKCYECEKFIAGKVLQAGGYKFHPTCARCSRCGSHFGDGEEMYMQGDEIWHPSCEHARTTENIAPTGRAATLSRNEPKYQSTFGQHQAYMYLLPEVEQTYLRHPVMNAKEPNAPQYHVPQGPIKIRKSRMSMLKTGMQRLTEDLEKNIPRPKSPHMDNEEPIELAHYPAAHVPDPDTLPAIEREDFPAPQFPYAVEELKRRLSTSSVENEISDDEYSESDKVDEDKLRKTVETLEKYNDSSIAHVIRQNIEDSHKKQRLPLHWDPRNASRTPSGKKMPHLKFRYDVPINASPSRHLNRPRPWVVWQGGERDQGNNTLPCFHIPEDSRANTLRAATLPTEFGQNLSLENLDTTISSHYSEHSTTESGTAGGPRSAGGAVLRSSLPDMSKPAKQYDLLFLQTTNSDLPEDVDRQHLERHLPRDQFEEIFKMSLIEFYKLPEWKRINLKRKHKLF”: the “soluble on expression in E. coli” value is on record as “not soluble”.
Take “MDPSMYPGASATYLSYPQQNASQDYLGAYAAQTTTTTRNTANGSTSSDHLLGDPSSSCSPRETSPSTTSLVLTIRLLMQGKEVGSIIGKKGDQIKKIREESGAKINISDGSCPERIVTITGTLGVIGKAFNMVCNKFEEDMLLLPNSVPKPPITMRVIVPATQCGSLIGKGGSKIKDIREATGASIQVASEMLPHSTERAVTLSGTADAINLATSLKIPGSTKRLHNHIPPKTNVQPIGNRHVSGYNCRTTTTGTGSTATRRGSTYGWRTGTGVQVQQQLVTNALLQQHQFAAVQQELAARAALFNQQLMMPGQQQQASQAQEVYLGQHGLIYTANGVQLGGQDNSKAMEAGAAAAAAAQWQGYDMAAMQQQQQQQQQLLNQYALNQSMLIGAPFMKGGPTPPGTTSGKATSSGASAQGAATSSARFHPY”: the “soluble on expression in E. coli” value is listed as “not soluble”.
Consider “MGSDKIHHHHHHIRSATACSSTDNVVSMKLTEHIGRLTVMGLMLPKHRPFFKERMGMNVQKEGVGEPTMAFTPTQRLHLGAEAEVWKGEWFGKAAVRKQRRPRSWRHPNLDHRLGVRRMISEARLLIRTRKAGLSVPSVWDLDYEGGQLIIEHLEGRPLIDVLNDPATEKEVAKTTLHRVGHSVRRLHREATTHGDLSSNNILIEGEHVHLIDFGLASIEYDVERFGIDLHVLDEILGASHPQWEGAIDWVIEGYLSAEEELGPAPALQGGSVPSAKEVHTRLEDIRTRVRYH”, for which the “soluble on expression in E. coli” value is “not soluble”.
For the sequence “MARLFTLSESKYYLMALDAGTGSIRAVIFDLEGNQIAVGQAEWRHLAVPDVPGSMEFDLNKNWQLACECMRQALHNAGIAPEYIAAVSACSMREGIVLYNNEGAPIWACANVDARAAREVSELKELHNNTFENEVYRATGQTLALSAIPRLLWLAHHRSDIYRQASTITMISDWLAYMLSGELAVDPSNAGTTGLLDLTTRDWKPALLDMAGLRADILSPVKETGTLLGVVSSQAAELCGLKAGTPVVVGGGDVQLGCLGLGVVRPAQTAVLGGTFWQQVVNLAAPVTDPEMNVRVNPHVIPGMVQAESISFFTGLTMRWFRDAFCAEEKLIAERLGIDTYTLLEEMASRVPPGSWGVMPIFSDRMRFKTWYHAAPSFINLSIDPDKCNKATLFRALEENAAIVSACNLQQIADFSNIHPSSLVFAGGGSKGKLWSQILADVSGLPVNIPVVKEATALGCAIAAGVGAGIFSSMAETGERLVRWERTHTPDPEKHELYQDSRDKWQAVYQDQLGLVDHGLTTSLWKAPGL”, the “soluble on expression in E. coli” value was “not soluble”.
As to “MGSDKIHHHHHHISYPLPPEGSRLVGSAFTIAVPDNNTQPLESFAAQYGQGLSNMLEANPGVDVYLPRSGSTLTIPQQLILPDTVREGIVINVAEMRLYYYPPLGNSVEVLPIGIGQAGRETPRNWVTAVERKQEGPTWVPTANTRREYAKEGKTLPAMVPPGPDNPMGLYAIYIGRLYAIHGTNANFGIGLRVSQGCIRLRNDDIKFLFDNVPVGTRVQLIDQPVKYSVEPDGSHWLEVHEPLSRNRAEFESDRKVPLPMTSALRDFTQGPGVSPAQVEQTLQRRSGMPVNISATAAQGSL”, the “soluble on expression in E. coli” value is listed as “not soluble”.
Turning to “MGSDKIHHHHHHMDTIAESIQKKAYELGYEKCGIIPINLIDEYADKFNERMEKIPKSKMFYKSQERLIKPKEIYPWAKSVVVLTSVYGKYKVPQELNGHIAKAYLFDTRVDKNTKEYQNNRALEEYMQELGLKVETNQKFGVVGMRWAALQAGVGIIRRNNFLYTESGSWVHLEAWVTDRKMELKETNNVKKCPKSCNRCIMSCPTKSLSEPYTMSPTECVSFLTTFGGRNLPEEPLRKKFGDCIYGCDICQDACPMNKGKWKDEEEFPGLAELAPSLTPENILNMDEDFYREKVQPKFFYLSPEDLWKWKIDALCYIGNNYSESYKPLLVNACNNANNKISEMANLICSELSLQ”, the “soluble on expression in E. coli” value is given as “not soluble”.
With “MHIAILGCTSQIAKDLIRSIYVYSQHDLILFGRTPQQTQSWLAENGITSRCSVNQYEEYPNIDHDVVINFVGIGDPSKAAAMGGSIFDITLHYDELVLNELKKYPDRRYLFLSSGAAYGSSFLEPADADTPSTININNLLPQEYYSVAKLHAECRHRSLKEYAIVDLRVFNVFSRTQDLEARFFITDIVRSIHSGTELITSSDMIYRDFMHPKDFYQLVERVLNAPPMNISLDCYSRQPVDKTTLLDEMKKTFGLSYRVKESNMSINATGIKPCYYSKNKRAAEFGYLPEYSSLETIIEETNAILGLQKTVLEHHHHHH” the entry was “soluble”.
Under “MAPEAQVSVQPNFQQDKFLGRWFSAGLASNSSWLREKKAALSMCKSVVAPATDGGLNLTSTFLRKNQCETRTMLLQPAGSLGSYSYRSPHWGSTYSVSVVETDYDQYALLYSQGSKGPGEDFRMATLYSRTQTPRAELKEKFTAFCKAQGFTEDTIVFLPQTDKCMTEQAHHHHHH” stands “soluble”; under “MALPGERFHVLAQLEHLQSKYTGTAMRHEPSRMDCESAPRHSRLSNVSSRNEHVYCRCGEREPSSNPLQSDKSHDSAVWTASREESS”, “not soluble”.
“MNTRTWFVLLCLALPLVSLQAQPHPQTEQTSPALSEHTEMDHTEMNHTEMDHTEMDHTEMDHTEMDHTQMDHTQMDHTQMDHAIHGATTQFAGDGSLPPPSAAALAAAFPPLRHRAAHAPPLVSLVRIDRLETWNADPGRGHAWATQAWIGSDIQRLWLRSQGECYGGRCQSVAVEMLYGHDISPWWDALIGARRDVQPDGRTWAALGVQGVAPYKFESAAFLYLSGAAMRLMVETKYDLLLSQRLILQPSLQATAGLTRDRDLGAGPQTLQVGIRMRYQITRRVAPYVGWEREYGYGESGRQARARGTSDHEKRWVAGIRCWFLEHHHHHH”: the “soluble on expression in E. coli” value is reported as “soluble”.
